In PMC12363175 one finds stoichiometry N (hACE2 molecules per S trimer) data, which are given here for 1 substance.

The target in the assay is BANAL-20-52 S ectodomain with stabilizing mutations. The experiment in a line: AUC.

peptidase domain (PD) of hACE2, sequence (Q9BYF1 19-615): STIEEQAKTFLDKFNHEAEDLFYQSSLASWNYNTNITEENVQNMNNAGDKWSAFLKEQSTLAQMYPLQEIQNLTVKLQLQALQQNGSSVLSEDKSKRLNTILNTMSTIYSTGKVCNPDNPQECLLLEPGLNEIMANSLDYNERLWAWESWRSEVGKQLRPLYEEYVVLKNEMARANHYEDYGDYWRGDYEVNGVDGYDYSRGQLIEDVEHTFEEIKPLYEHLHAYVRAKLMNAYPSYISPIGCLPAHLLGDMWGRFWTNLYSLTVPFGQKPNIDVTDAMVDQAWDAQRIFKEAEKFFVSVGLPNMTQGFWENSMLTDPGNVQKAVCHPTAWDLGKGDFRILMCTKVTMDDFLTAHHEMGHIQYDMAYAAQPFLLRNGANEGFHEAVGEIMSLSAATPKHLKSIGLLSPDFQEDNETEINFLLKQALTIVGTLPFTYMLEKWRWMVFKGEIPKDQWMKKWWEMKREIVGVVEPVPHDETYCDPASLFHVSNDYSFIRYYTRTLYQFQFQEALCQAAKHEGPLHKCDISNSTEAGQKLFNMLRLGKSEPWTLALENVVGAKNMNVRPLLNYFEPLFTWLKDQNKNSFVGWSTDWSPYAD

“peptidase domain (PD) of hACE2 (from UniProt Q9BYF1 19-615) (domain or fragment)” yielded a stoichiometry N (hACE2 molecules per S trimer) of 2.
